The target of experiment [1] is CT7-Tlpa coil fusion protein (Tlpa coiled-coil domain - GGSGG linker - C-terminal T7 RNA polymerase fragment) (T7 phage). Description: cell-based or functional assay.
In experiment [2] the target is CT7 protein fragment (C-terminal T7 RNA polymerase fragment without Tlpa coiled-coil) (T7 phage, UniProt P00573 564-883). Put plainly: cell-based or functional assay.

The record followed here is patent publication US20240035059A1 (NATIONAL UNIVERSITY OF SINGAPORE, published 2024).

In experiment [1], “NT7-Tlpa coil fusion protein (N-terminal T7 RNA polymerase fragment - GGSGG linker - Tlpa coiled-coil domain)” gave a fold-difference of pT7-GFP reporter between 30° C. and 42° C., Thermal-T7RNAP(v3) of 24 fold; a half-activation temperature Km of pT7-GFP reporter, Thermal-T7RNAP(v1) of 37.5 ° C; a half-activation temperature Km of pT7-GFP reporter, Thermal-T7RNAP(v2) of 38.4 ° C; a half-activation temperature Km of pT7-GFP reporter, Thermal-T7RNAP(v3) of 36.3 ° C. Moreover, in experiment [1], the maximum repression capacity Kinh of pT7-GFP reporter, Thermal-T7RNAP(v1) stood at 0.957; the maximum repression capacity Kinh of pT7-GFP reporter, Thermal-T7RNAP(v2) amounted to 0.427; the maximum repression capacity Kinh of pT7-GFP reporter, Thermal-T7RNAP(v3) was 0.971.

B1: NT7 protein fragment (N-terminal T7 RNA polymerase fragment without Tlpa coiled-coil) (other)
chain: MNTINIAKNDFSDIELAAIPFNTLADHYGERLAREQLALEHESYEMGEARFRKMFERQLKAGEVADNAAAKPLITTLLPKMIARINDWFEEVKAKRGKRPTAFQFLQEIKPEAVAYITIKTTLACLTSADNTTVQAVASAIGRAIEDEARFGRIRDLEAKHFKKNVEEQLNKRVGHVYKKAFMQVVEADMLSKGLLGGEAWSSWHKEDSIHVGVRCIEMLIESTGMVSLHRQNAGVVGQDSETIELAPEYAEAIATRAGALAGISPMFQPCVVPPKPWTGITGGGYWANGRRPLALVRTHSKKALMRYEDVYMPEVYKAINIAQNTAWKINKKVLAVANVITKWKHCPVEDIPAIEREELPMKPEDIDMNPEALTAWKRAAAAVYRKDKARKSRRISLEFMLEQANKFANHKAIWFPYNMDWRGRVYAVSMFNPQGNDMTKGLLTLAKGKPIGKEGYYWLKIHGANCAGVDKVPFPERIKFIEENHENIMACAKSPLENTWWAEQDSPFCFLAFCFEYAGVQHHGLSYNCSLPLAFDGSCSGIQHFSAMLRDEVGGRAVNLLP
For B1, the “fold-difference of pT7-GFP reporter between 30° C. and 42° C., Split-T7 system (no Tlpa coil)” value in experiment [2] is 4 fold.
